# Experimental data reported in article PMC10404669, “Vanillyl alcohol oxidase from Diplodia corticola: Residues Ala420 and Glu466 allow for efficient catalysis of syringyl derivatives” (The Journal of Biological Chemistry, 2023).
# B1: DcVAO (vanillyl alcohol oxidase) (Diplodia corticola) (protein)
# chain: MSLSRPLALPPGVSESTFHQFIERITKTTPDVTIVESKDQFPDGGYHEPPSSHDPFYVQDKDHFIASAFVCPRSVDEVQDIVRAAGDFVIPLWPTSLGRNLGYGGAAPRVRGSVVLNLGKHMNRILEVNVEGAYALVEPGVTFEALHNYLVEHNLRDKLWLDVPDLGGGSVLGNTLERGVGYTPYGDHFMMHSGMEVVLANGELLRTGMGALPAPKSETEGVTKLHEEPGNKCWQLFPYGFGPYNDGLFSQSNLGIVTKLGLGLMPNPGGYQSYLITIPGEEDLHKAVEIIRPLRLNNVIQNVPTLRYVLLDAGMMGHKSDYTSSTSPIDEATTDAIAKKLNLGRWNFYGALYGPPEIRTAMWKLIHAAFSAIPGARFFFPDDVADPRAVLHNRHNVLQGIPSYEELRWVDWVPNGAHVAFSPISRISGADAARQVDLAKRRCRDAGFDYMGTFTVGMREMHHIVEIVFDRTDAGQRKRAEALVRGLVDECAALGWGEYRTHLAFMDQIAGTYGWGGGALGRFNERVKEALDPKGILAPGKSGVWGSRFGELKGKL
# B2: PsVAO (vanillyl alcohol oxidase) (Penicillium simplicissimum) (protein)
# chain: MSKTQEFRPLTLPPKLSLSDFNEFIQDIIRIVGSENVEVISSKDQIVDGSYMKPTHTHDPHHVMDQDYFLASAIVAPRNVADVQSIVGLANKFSFPLWPISIGRNSGYGGAAPRVSGSVVLDMGKNMNRVLEVNVEGAYCVVEPGVTYHDLHNYLEANNLRDKLWLDVPDLGGGSVLGNAVERGVGYTPYGDHWMMHSGMEVVLANGELLRTGMGALPDPKRPETMGLKPEDQPWSKIAHLFPYGFGPYIDGLFSQSNMGIVTKIGIWLMPNPRGYQSYLITLPKDGDLKQAVDIIRPLRLGMALQNVPTIRHILLDAAVLGDKRSYSSRTEPLSDEELDKIAKQLNLGRWNFYGALYGPEPIRRVLWETIKDAFSAIPGVKFYFPEDTPENSVLRVRDKTMQGIPTYDELKWIDWLPNGAHLFFSPIAKVSGEDAMMQYAVTKKRCQEAGLDFIGTFTVGMREMHHIVCIVFNKKDLIQKRKVQWLMRTLIDDCAANGWGEYRTHLAFMDQIMETYNWNNSSFLRFNEVLKNAVDPNGIIAPGKSGVWPSQYSHVTWKL
# How the values were obtained:
# [1] = substrate: C=CCc1ccc(O)c(OC)c1; test: steady-state kinetics, purified enzyme, xylenol orange H2O2 assay (KM, Hill fit); type: biochemical, Diplodia corticola; conditions: FAD (covalently bound) catalytic center; pH 7.5; 25.0 °C
# [2] = substrate: CCCCOCc1ccc(O)c(OC)c1; test: Michaelis-Menten kinetics, purified enzyme, xylenol orange H2O2 assay (KM); type: biochemical, Diplodia corticola; conditions: FAD (covalently bound) catalytic center; pH 7.5; 25.0 °C
# [3] = substrate: CCOCc1ccc(O)c(OC)c1; test: as above; type: biochemical, Diplodia corticola; conditions: FAD (covalently bound) catalytic center; Ala420 and Glu466 near the substrate (docking); pH 7.5; 25.0 °C
# [4] = substrate: COCc1ccc(O)c(OC)c1; test: as above; type: biochemical, Diplodia corticola; conditions: FAD (covalently bound) catalytic center; pH 7.5; 25.0 °C
# [5] = substrate: COc1cc(CO)ccc1O; test: as above; type: biochemical, Diplodia corticola; conditions: FAD (covalently bound) catalytic center; pH 7.5; 25.0 °C
# [6] = substrate: CCOCc1ccc(O)c(OC)c1; test: as above; type: biochemical, Penicillium simplicissimum; conditions: FAD (covalently bound) catalytic center; pH 7.5; 25.0 °C
# [7] = substrate: COCc1ccc(O)c(OC)c1; test: as above; type: biochemical, Penicillium simplicissimum; conditions: FAD (covalently bound) catalytic center; pH 7.5; 25.0 °C
# [8] = substrate: COc1cc(CO)ccc1O; test: as above; type: biochemical, Penicillium simplicissimum; conditions: FAD (covalently bound) catalytic center; pH 7.5; 25.0 °C
# purified protein = substrate: C=CCc1ccc(O)c(OC)c1; test: purified protein; type: biochemical, Penicillium simplicissimum; conditions: FAD (covalently bound) catalytic center; pH 7.5; 25.0 °C
Protein,Km [1] [µM],kcat [1] [s⁻¹],Km [2] [µM],kcat [2] [s⁻¹],Km [3] [µM],kcat [3] [s⁻¹],Km [4] [µM],kcat [4] [s⁻¹],Km [5] [µM],kcat [5] [s⁻¹],Km [6] [µM],kcat [6] [s⁻¹],Km [7] [µM],kcat [7] [s⁻¹],Km [8] [µM],kcat [8] [s⁻¹],Km (purified protein) [µM],kcat (purified protein) [s⁻¹]
B1,60 ± 3,10.3 ± 0.1,258 ± 27,2.1 ± 0.1,198 ± 19,4.7 ± 0.2,263 ± 12,1.9 ± 0.01,297 ± 21,4 ± 0.1,–,–,–,–,–,–,–,–
B2,–,–,–,–,–,–,–,–,–,–,86 ± 3,2.6 ± 0.02,155 ± 5,7.9 ± 0.1,144 ± 10,6.7 ± 0.1,67 ± 2,18.7 ± 0.5
